Columns and labels:
human Sortilin = human Sortilin (human, UniProt Q99523 78-830); assay: cell-based or functional assay
mouse Sortilin = mouse Sortilin (mouse, UniProt Q6PHU5 74-825); assay: cell-based or functional assay
[1] = molecular target: T1, recombinant mouse Sortilin (mouse, UniProt Q6PHU5 74-825); assay: flow cytometry, 10 ug/ml antibody on 293 cells expressing recombinant mouse Sortilin, PE anti-human secondary
T1 construct: also called mSort
Procedure: (§1) Cells were harvested, plated at 10⁵/ml in a 96 well plate, washed, and incubated in 100 μl PBS containing 10 μg/ml Mab and 2% FBS for 1 hour in ice. Cells were then washed twice and incubated in 100 μl PBS+2% FBS containing 5 μg/ml PE-conjugated anti-human secondary antibody for 30 minutes in ice. Cells were washed twice in cold PBS and data was acquired on a BD FACS Canto. Data analysis and calculation of MFI values was performed with FlowJo (TreeStar) software version 10.0.7.

[2] = molecular target: T2, recombinant human Sortilin (human, UniProt Q99523 78-830); assay: flow cytometry, 10 ug/ml antibody on 293 cells expressing recombinant human Sortilin, PE anti-human secondary
T2 construct: also called hSort; SORT1
Procedure: as §1

[3] = molecular target: T3, human Sortilin expressed on HEK293T cells (human, UniProt Q99523 78-830); assay: flow cytometry, antibody titration on HEK293T cells stably expressing human Sortilin, 4 C, apparent KD by non-linear fit
T3 construct: also called hSort; HEK293T + hSort
Procedure: (§2) Antibodies were diluted in FACS buffer (PBS+2% FBS+0.01% NaAzide). After incubation on ice for 1 h, cells were washed three times in FACS buffer and incubated with anti-human PE conjugated secondary antibody (BD Biosciences, 1:100 dilution) for 30 min on ice. Then cells were washed twice in 200 μl FACS buffer, and subsequently analyzed on a FACS Canto or iQE FACS screening instrument (Intellicyt Corp).

[4] = molecular target: T4, mouse Sortilin expressed on HEK293T cells (mouse, UniProt Q6PHU5 74-825); assay: flow cytometry, antibody titration on HEK293T cells transiently expressing mouse Sortilin, 4 C, apparent KD by non-linear fit
T4 construct: also called msSort; mSort
Procedure: as §2

| Percent reduction of Sortilin levels in U251 cells (human Sortilin) [%] | Percent reduction of Sortilin levels in N2A cells (mouse Sortilin) [%] | MFI binding [1] [MFI] | MFI binding [2] [MFI] | Binder | other results |
| --- | --- | --- | --- | --- | --- |
| 18.2 | 51.3 | – | – | anti-Sortilin antibody S-81 (antibody, V domains shown) VH: QLQLQESGPGLVKPSETLSLTCTVSGGSISSSSYYWGWIRQPPGKGLEWIGSIYYSGSTYYNPSLKSRVTISVDTSKNQFSLKLSSVTAADTAVYYCARERWDLGHGMDVWGQGTTVTVSS VL: not shown | – |
| – | – | 16600 | 8940 | anti-Sortilin antibody S-81 (antibody, V domains shown, Tested as full IgG made in yeast) VH: QLQLQESGPGLVKPSETLSLTCTVSGGSISSSSYYWGWIRQPPGKGLEWIGSIYYSGSTYYNPSLKSRVTISVDTSKNQFSLKLSSVTAADTAVYYCARERWDLGHGMDVWGQGTTVTVSS VL: not shown | – |
| 93.4 | 86.5 | – | – | anti-Sortilin antibody S-19 (antibody, V domains shown) VH: QVQLVQSGAEVKKPGSSVKVSCKASGGTFSSYAISWVRQAPGQGLEWMGGIIPIFGTASYAQKFQGRVTITADESTSTAYMELSSLRSEDTAVYYCARESRIPGSGYYYYYGMDVWGQGTTVTVSS VL: DIQMTQSPSSLSASVGDRVTITCRASQSISSYLNWYQQKPGKAPKLLIYSASSLQSGVPSRFSGSGSGTDFTLTISSLQPEDFATYYCQQTDGKPPTFGGGTKVEIK | – |
| – | – | 4180 | 9680 | anti-Sortilin antibody S-76 (antibody, V domains shown, Tested as full IgG made in yeast) VH: QVQLQESGPGLVKPSQTLSLTCTVSGGSISSGGYYWSWIRQHPGKGLEWIGSIYYSGSTYYNPSLKSRVTISVDTSKNQFSLKLSSVTAADTAVYYCARGVGIQQQLVLGFDPWGQGTLVTVSS VL: DIQMTQSPSSLSASVGDRVTITCRASQSISSFLNWYQQKPGKAPKLLISAASSLQSGVPSRFSGSGSGTDFTLTISSLQPEDFATYYCQQSYREPITFGGGTKVEIK | – |
| – | – | 7670 | 8070 | anti-Sortilin antibody S-73 (antibody, V domains shown, Tested as full IgG made in yeast) VH: QVQLQESGPGLVKPSQTLSLTCTVSGGSISSGTYYWSWIRQHPGKGLEWIGYIYYSGSTYYNPSLKSRVTISVDTSKNQFSLKLSSVTAADTAVYYCARGVGRYRVADYWGQGTLVTVSS VL: EIVLTQSPATLSLSPGERATLSCRASQSVSSYLAWYQQKPGQAPRLLIYDASNRATGIPARFSGSGSGTDFTLTISSLEPEDFAVYYCQQASVYPPITFGGGTKVEIK | – |
| – | – | 7300 | 9210 | anti-Sortilin antibody S-74 (antibody, V domains shown, Tested as full IgG made in yeast) VH: QVQLQESGPGLVKPSQTLSLTCTVSGGSISSGTYYWSWIRQHPGKGLEWIGYIYYSGSTYYNPSLKSRVTISVDTSKNQFSLKLSSVTAADTAVYYCARGVGRYRVADYWGQGTLVTVSS VL: EIVMTQSPATLSLSPGERATLSCRASQSVSSYLAWYQQKPGQAPRLLIYDSSNRATGIPARFSGSGSGTDFTLTISSLEPEDFAVYYCQQETNMPPITFGGGTKVEIK | – |
| – | – | 15400 | 9240 | anti-Sortilin antibody S-84 (antibody, V domains shown, Tested as full IgG made in yeast) VH: QLQLQESGPGLVKPSETLSLTCTVSGGSISSSSYYWGWIRQPPGKGLEWIGSISYSGSTYYNPSLKSRVTISVDTSKNQFSLKLSSVTAADTAVYYCARGGTTWLVADVWGQGTMVTVSS VL: not shown | – |
| – | – | 7930 | 7120 | anti-Sortilin antibody S-78 (antibody, V domains shown, Tested as full IgG made in yeast) VH: QLQLQESGPGLVKPSETLSLTCTVSGGSISSSDYYWGWIRQPPGKGLEWIGSIYYSGSTYYNPSLKSRVTISVDTSKNQFSLKLSSVTAADTAVYYCARSLAMSGAYFDLWGRGTLVTVSS VL: not shown | – |
| 70.3 | 62.7 | – | – | anti-Sortilin antibody S-61 (antibody, V domains shown) VH: QVQLQESGPGLVKPSETLSLTCAVSGYSISSGYYWGWIRQPPGKGLEWIGSIYHSGSTYYNPSLKSRVTISVDTSKNQFSLKLSSVTAADTAVYYCARGSPRFYYGSGSYLDLFDIWGQGTMVTVSS VL: EIVMTQSPATLSVSPGERATLSCRASQSVSSNLAWYQQKPGQAPRLLIYGASTRATGIPARFSGSGSGTEFTLTISSLQSEDFAVYYCQEYLNYPITFGGGTKVEIK | – |
| – | – | 1890 | 8580 | anti-Sortilin antibody S-69 (antibody, V domains shown, Tested as full IgG made in yeast) VH: QVQLQESGPGLVKPSQTLSLTCTVSGGSISSGGYYWSWIRQHPGKGLEWIGYIYYSGSTYYNPSLKSRVTISVDTSKNQFSLKLSSVTAADTAVYYCARDRGGTHFGADHYYYGMDVWGQGTMVTVSS VL: EIVMTQSPATLSVSPGERATLSCRASQSVSSSLAWYQQKPGQAPRLLIYGASTRATGIPARFSGSGSGTEFTLTISSLQSEDFAVYYCQQAADWPITFGGGTKVEIK | – |
| – | – | – | – | anti-Sortilin antibody S-15-10-13 (antibody, V domains shown) VH: QVQLVQSGAEVKKPGASVKVSCKASGYTFTKYYMSWVRQAPGQGLEWMGIINPIGGSTSYARKFQGRVTMTRDTSTSTVYMELSSLRSEDTAVYYCARDPSGIAAAYPASRYNYGMDVWGQGTTVTVSS VL: EIVMTQSPATLSVSPGERATLSCRASQSVSSNLAWYQQKPGQAPRLLIYGASTRATGIPARFSGSGSGTEFTLTISSLQSEDFAVYYCQQARLGPWTFGGGTKVEIK | Kd [3]: 2.88 nM; Kd [4]: 4.07 nM |
| – | – | – | – | anti-Sortilin antibody S-15-6-12 (antibody, V domains shown) VH: QVQLVQSGAEVKKPGASVKVSCKASGYTFTSRYMSWVRQAPGQGLEWMGIINPVGGSTSYAQKFQGRVTMTRDTSTSTVYMELSSLRSEDTAVYYCARDPSGIALAGPGSRYYRGMDVWGQGTTVTVSS VL: EIVMTQSPATLSVSPGERATLSCRASQSVSSNLAWYQQKPGQAPRLLIYGASTRATGIPARFSGSGSGTEFTLTISSLQSEDFAVYYCQQARLGPWTFGGGTKVEIK | Kd [3]: 3.84 nM; Kd [4]: 6.62 nM |
| – | – | – | 9300 | anti-Sortilin antibody S-83 (antibody, V domains shown, Tested as full IgG made in yeast) VH: QLQLQESGPGLVKPSETLSLTCTVSGGSISSSSYYWGWIRQPPGKGLEWIGSIYYSGSTYYNPSLKSRVTISVDTSKNQFSLKLSSVTAADTAVYYCARGSPTWLRDYYMDVWGKGTTVTVSS VL: EIVLTQSPATLSVSPGERATLSCRASQSVSSNLAWYQQKPGQAPRLLIYGASTRATGIPARFSGSGSGTEFTLTISSLQSEDFAVYYCQQYNAFPPTFGGGTKVEIK | – |
| 42.5 | 45.1 | – | – | anti-Sortilin antibody S-6 (antibody, V domains shown) VH: not shown VL: EIVMTQSPATLSVSPGERATLSCRASQSVSSNLAWYQQKPGQAPRLLIYGASTRATGIPARFSGSGSGTEFTLTISSLQSEDFAVYYCQQVANYPRTFGGGTKVEIK | – |
| 17.1 | 47.3 | – | – | anti-Sortilin antibody S-26 (antibody, V domains shown) VH: EVQLVESGGGLVKPGGSLRLSCAASGFTFSSYSMNWVRQAPGKGLEWVSSISSSSSYIYYADSVKGRFTISRDNAKNSLYLQMNSLRAEDTAVYYCARDRLGRGYKWNWFDPWGQGTLVTVSS VL: DIQMTQSPSSVSASVGDRVTITCRASQGIDSWLAWYQQKPGKAPKLLIYAASSLQSGVPSRFSGSGSGTDFTLTISSLQPEDFATYYCQQGNSLPPITFGGGTKVEIK | – |

— patent US20220251219A1 (published 2022)
